From the supplement of paper PMC10567573

B1: WEE1 (parent)
chain: INPFTPDSLLLHSSGQCRRRKRTY
B2: SPDEF (parent)
chain: YPEDSSWAAKAPGASSREEPPEEP

Variants of: B1
Experiment: protein stability index of a GFP-peptide fusion (GPS, HEK-293T) (PSI 1-6); higher = more stable
Conditions: c terminus: a fixed tail appended
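Also: lentivirally expressed fusions sorted by FACS into six bins by GFP to DsRed ratio, PSI derived from sequencing read proportions per bin multiplied by bin number.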

Variant	protein stability index
INPFTPDSLLLHSSGQCRRRKGTY	3.55
INPFTPDSLLLHSSGQCRRRKHTY	3.5
INPFTPDSLLLHSSGQCRRRKITY	3.11
INPFTPDSLLLHSSGQCRRRKKTY	3.59
INPFTPDSLLLHSSGQCRRRKLTY	2.92
INPFTPDSLLLHSSGQCRRRKMTY	3.08
INPFTPDSLLLHSSGQCRRRKNTY	3.91
INPFTPDSLLLHSSGQCRRRKPTY	3.23
INPFTPDSLLLHSSGQCRRRKQTY	3.19
INPFTPDSLLLHSSGQCRRRKSTY	3.31
INPFTPDSLLLHSSGQCRRRKTTY	3.45
INPFTPDSLLLHSSGQCRRRKVTY	2.8
INPFTPDSLLLHSSGQCRRRKWTY	2.27
INPFTPDSLLLHSSGQCRRRKYTY	2.87
INPFTPDSLLLHSSGQCRRRKRAY	3.79
INPFTPDSLLLHSSGQCRRRKRCY	2.7
INPFTPDSLLLHSSGQCRRRKRDY	4.11
INPFTPDSLLLHSSGQCRRRKREY	3.37
INPFTPDSLLLHSSGQCRRRKRFY	3.36
INPFTPDSLLLHSSGQCRRRKRGY	3.87
INPFTPDSLLLHSSGQCRRRKRHY	3.7
INPFTPDSLLLHSSGQCRRRKRIY	2.78
INPFTPDSLLLHSSGQCRRRKRKY	4.29
INPFTPDSLLLHSSGQCRRRKRLY	3.5
INPFTPDSLLLHSSGQCRRRKRMY	3.6
INPFTPDSLLLHSSGQCRRRKRNY	3.5

Variant	protein stability index
INPFTPDSLLLHSSGQCRRRKRPY	3.26
INPFTPDSLLLHSSGQCRRRKRQY	3.42
INPFTPDSLLLHSSGQCRRRKRRY	3.56
INPFTPDSLLLHSSGQCRRRKRSY	3.93
INPFTPDSLLLHSSGQCRRRKRVY	3.06
INPFTPDSLLLHSSGQCRRRKRWY	2.79
INPFTPDSLLLHSSGQCRRRKRYY	3.38
INPFTPDSLLLHSSGQCRRRKRTA	4.33
INPFTPDSLLLHSSGQCRRRKRTC	3.8
INPFTPDSLLLHSSGQCRRRKRTD	4.27
INPFTPDSLLLHSSGQCRRRKRTE	3.13
INPFTPDSLLLHSSGQCRRRKRTF	3.12
INPFTPDSLLLHSSGQCRRRKRTG	4.07
INPFTPDSLLLHSSGQCRRRKRTH	3.75
INPFTPDSLLLHSSGQCRRRKRTI	3.01
INPFTPDSLLLHSSGQCRRRKRTK	4.27
INPFTPDSLLLHSSGQCRRRKRTL	3.04
INPFTPDSLLLHSSGQCRRRKRTM	3.48
INPFTPDSLLLHSSGQCRRRKRTN	3.75
INPFTPDSLLLHSSGQCRRRKRTP	3.81
INPFTPDSLLLHSSGQCRRRKRTQ	3.69
INPFTPDSLLLHSSGQCRRRKRTR	4.52
INPFTPDSLLLHSSGQCRRRKRTS	4.45
INPFTPDSLLLHSSGQCRRRKRTT	3.96
INPFTPDSLLLHSSGQCRRRKRTV	3.95
INPFTPDSLLLHSSGQCRRRKRTW	3.36

Variants of: B2
Experiment: as above
Conditions: c terminus: a fixed tail appended

Variant	protein stability index
YPEDSSWAPKAPGASSREEPPEEP	4.23
YPEDSSWAAKAFGASSREEPPEEP	3.59
YPEDNSWAAKAPGASSREEPPEEP	4.16
YPEDSSWAAKAQGASSREEPPEEP	4.18
YPEDSSWAAKALGASSREEPPEEP	3.33
NPEDSSWAAKAPGASSREEPPEEP	5.56
YPEDKSWAAKAPGASSREEPPEEP	4.49
YPEDSSWAAKAPGASTREEPPEEP	2.85
YPLDSSWAAKAPGASSREEPPEEP	4.69
YPEDSSWAAKAPGASSRHEPPEEP	3.86
YPEDSSWAAKAPGASSREEPPDEP	3.4
YPEDSSWAAKAPGYSSREEPPEEP	3.89
YPEDSSWNAKAPGASSREEPPEEP	4.45
YPPDSSWAAKAPGASSREEPPEEP	3.15
YPEDSSWAAKDPGASSREEPPEEP	4.51
YPEDSSWIAKAPGASSREEPPEEP	3.72
YPEDSSWAAKAPGAGSREEPPEEP	3.53
YPEDSSWAAKSPGASSREEPPEEP	4.01
YPEDSSWAAKFPGASSREEPPEEP	3.71
YPEDSSWAAKAPGASSREVPPEEP	4.48
YPEDSSPAAKAPGASSREEPPEEP	5.38

Variant	protein stability index
YPEDSSWAAKNPGASSREEPPEEP	4.59
YTEDSSWAAKAPGASSREEPPEEP	2.95
YPEDSSWAAKAPGASSRFEPPEEP	3.05
CPEDSSWAAKAPGASSREEPPEEP	5.04
YIEDSSWAAKAPGASSREEPPEEP	2.53
YPEDSSWAAKYPGASSREEPPEEP	3.75
YPEDSSWAAKAPGASSRYEPPEEP	3.46
YPEDRSWAAKAPGASSREEPPEEP	4.26
YPEDSSWAAKAPGASSRETPPEEP	4.49
YPEDSSWAAKAPGASSRDEPPEEP	4.86
YPEDSSWAAKAPGASSREEPPEAP	4.06
YHEDSSWAAKAPGASSREEPPEEP	2.25
YPEDSEWAAKAPGASSREEPPEEP	5.03
YPEDSSWAAKAPGASSREEPPTEP	4.31
SPEDSSWAAKAPGASSREEPPEEP	5.55
YPEDSSWAAKAPGASSREEKPEEP	3.89
YPEDSSWAAKAPFASSREEPPEEP	3.87
YPEDSSWRAKAPGASSREEPPEEP	3.28
YPEDSSWAAKAPGRSSREEPPEEP	4.16
YPEQSSWAAKAPGASSREEPPEEP	3.09
YPEDSSWAAKAPGASSREEPPENP	3.58
